Measured values reported in patent US20140031283A1, “ANTICANCER FUSION PROTEIN” (ADAMED SP. Z O.O., priority 2011, published 2014).
“And” between values parts separate entries of the source, which are not always exact repeats. Equal values may be shown once.

B1: Ex. 17: fusion protein: 13-amino acid fragment of tubulin with 6 arginine residues at N-terminus of TRAIL121-281, uPA and MMP sites (protein)
chain: FRRKAFLHWYTGRRRRRRRRVVRPLGLAGRVAAHITGTRGRSNTLSSPNSKNEKALGRKINSWESSRSGHSFLSNLHLRNGELVIHEKGFYYIYSQTYFRFQEEIKENTKNDKQMVQYIYKYTSYPDPILLMKSARNSCWSKDAEYGLYSIYQGGIFELKENDRIFVSVTNEHLIDMDHEASFFGAFLVG
modifications: synthesized, a fusion protein comprising: a fragment of TRAIL protein, a fragment of tubulin peptide, cleavage sites recognized by urokinase uPA and metalloprotease MMP and an arginine transporting domain.
notes: fusion protein: 13-amino acid fragment of tubulin with 6 arginine residues at N-terminus of TRAIL121-281, uPA and MMP sites
B2: Ex. 14: fusion protein: 13-amino acid fragment of MEK-1 protein with antennapedia sequence at C-terminus of TRAIL121-281, MMP and uPA sites (protein)
chain: RVAAHITGTRGRSNTLSSPNSKNEKALGRKINSWESSRSGHSFLSNLHLRNGELVIHEKGFYYIYSQTYFRFQEEIKENTKNDKQMVQYIYKYTSYPDPILLMKSARNSCWSKDAEYGLYSIYQGGIFELKENDRIFVSVTNEHLIDMDHEASFFGAFLVGGSPLGLAGRVVRDRQIKIWFQNRRMKWKKGMPKKKPTPIQLN
modifications: synthesized, a fusion protein comprising: a fragment of TRAIL protein, a fragment of MEK-1 protein - an inhibitor of ERK activation, cleavage sites recognized by uPA and MMP, an antennapedia transporting domain and a glycine- cysteine linker.
B3: Ex. 2^a: fusion protein: 8-amino acid fragment of human fetoprotein (SEQ. No. 28) at N-terminus of TRAIL114-281, uPA cleavage site (protein)
chain: EMTPVNPGRVVRERGPQRVAAHITGTRGRSNTLSSPNSKNEKALGRKINSWESSRSGHSFLSNLHLRNGELVIHEKGFYYIYSQTYFRFQEEIKENTKNDKQMVQYIYKYTSYPDPILLMKSARNSCWSKDAEYGLYSIYQGGIFELKENDRIFVSVTNEHLIDMDHEASFFGAFLVG
modifications: synthesized, a fusion protein comprising: a fragment of TRAIL protein, a fragment of human fetoprotein and a cleavage site recognized by urokinase uPA.

Columns and labels:
A549 = assay: MTT cytotoxicity test, A549 (human lung cancer); format: cell-based
Description: (§1) MTT assay is a colorimetric assay used to measure proliferation, viability and cytotoxicity of cells. It consists in decomposition of a yellow tetrazolium salt MTT (4,5-dimethyl-2-thiazolyl)-2,5-diphenyltetrazolium bromide) to the water-insoluble purple dye formazan by mitochondrial enzyme succinate-tetrazolium reductase 1. MTT reduction occurs only in living cells. Data analysis consists in determining IC50 concentration of the protein (in ng/ml), at which the 50% reduction in the number of cells occurs in the population treated compared to control cells. Results were analyzed using GraphPad Prism 5.0 software. The test was performed according to the literature descriptions (Cells, J E, (1998). Cell Biology, a Laboratory Handbook, second edition, Academic Press, San Diego; Yang, Y., Koh, L W, Tsai, J H., (2004); Involvement of viral and chemical factors with oral cancer in Taiwan, Jpn J Clin Oncol, 34 (4), 176-183). Cell culture medium was diluted to a defined density (10^4-10^5 cells per 100 μl). Then 100 μl of appropriately diluted cell suspension was applied to a 96-well plate in triplicates. Thus prepared cells were incubated for 24 h at 37° C. in 5% or 10% CO2, depending on the medium used, and then to the cells (in 100 μl of medium) further 100 μl of the medium containing various concentrations of tested proteins were added. In the case of combination hTRAIL114-281 and p21WAF effector protein, 100 μl of the medium containing mixture of hTRAIL114-281 and p21WAF effector protein in molar ratio 1:1 was added. After incubation of the cells with tested proteins over the period of next 72 hours, which is equivalent to 3-4 times of cell division, the medium with the test protein was added with […] of MTT working solution [5 mg/ml], and incubation was continued for 3 h at 37° C. in 5% CO2. Then the medium with MTT solution was removed, and formazan crystals were dissolved by adding 100 μl of DMSO. After stirring, the absorbance was measured at 570 nm (reference filter 690 nm).
(§2) The results of in vitro cytotoxicity tests are summarized as IC50 values (ng/ml), which corresponds to the protein concentration at which the cytotoxic effect of fusion proteins is observed at the level of 50% with respect to control cells treated only with solvent. Each experiment represents the average value of at least two independent experiments performed in triplicates. As a criterion of lack of activity of protein preparations the IC50 limit of 2000 ng/ml was adopted.

HT-29 = assay: MTT cytotoxicity test, HT-29 (human colorectal cancer); format: cell-based; settings: Table 4, mean/SD part; listed as Ex. 17^a
Description: (§3) MTT assay is a colorimetric assay used to measure proliferation, viability and cytotoxicity of cells. It consists in decomposition of a yellow tetrazolium salt MTT (4,5-dimethyl-2-thiazolyl)-2,5-diphenyltetrazolium bromide) to the water-insoluble purple dye formazan by mitochondrial enzyme succinate-tetrazolium reductase 1. MTT reduction occurs only in living cells. Data analysis consists in determining IC50 concentration of the protein (in ng/ml), at which the 50% reduction in the number of cells occurs in the population treated compared to control cells. Results were analyzed using GraphPad Prism 5.0 software. The test was performed according to the literature descriptions (Cells, J E, (1998). Cell Biology, a Laboratory Handbook, second edition, Academic Press, San Diego; Yang, Y., Koh, L W, Tsai, J H., (2004); Involvement of viral and chemical factors with oral cancer in Taiwan, Jpn J Clin Oncol, 34 (4), 176-183). Cell culture medium was diluted to a defined density (10^4-10^5 cells per 100 μl). Then 100 μl of appropriately diluted cell suspension was applied to a 96-well plate in triplicates. […] After stirring, the absorbance was measured at 570 nm (reference filter 690 nm). […]

MES-SA/Dx5 = assay: MTT cytotoxicity test, MES-SA/Dx5 (multidrug-resistant human uterine sarcoma); format: cell-based; settings: for MES-SA/Dx5 mean (IC50): Table 4, mean/SD part
Description: as §1, §2
Cells selected for this test included tumor cell lines that are naturally resistant to TRAIL protein (the criterion of natural resistance to TRAIL: IC50 for TRAIL protein >2000), as well as tumor cell lines sensitive to TRAIL protein and resistant to doxorubicin line MES-SA/DX5 as a cancer line resistant to conventional anticancer medicaments.

SK-MES-1 = assay: MTT cytotoxicity test, SK-MES-1 (human lung cancer); format: cell-based; settings: for SK-MES-1 mean (IC50): Table 4, mean/SD part
Description: as §1, §2

MES-SA = assay: MTT cytotoxicity test, MES-SA (human uterine sarcoma); format: cell-based; settings: continuous incubation over 72 h, test MTT
Description: as §1, §2

MCF10A = assay: MTT cytotoxicity test, MCF10A (mammary epithelial cells); format: cell-based; settings: continuous incubation over 72 h, test MTT
Description: as §1, §2

[1] = system: TRAIL sensitive cell lines; assay: in vitro cytotoxicity tests, TRAIL sensitive cell lines; format: cell-based; settings: continuous incubation over 72 h, test MTT; versus rhTRAIL 95-281 (cell line not given)
Description: as §1, with “nm). […]” for “nm).”

UM-UC-3 = assay: MTT cytotoxicity test, UM-UC-3 (human bladder cancer); format: cell-based; settings: Table 4, mean/SD part
Description: as §3

NIH: OVCAR-3 = assay: MTT cytotoxicity test, NIH: OVCAR-3 (human ovarian cancer); format: cell-based; settings: Table 4, mean/SD part
Description: as §3

[2] = system: human lung cancer NCI-H460-Luc2; assay: NCI-H460-Luc2 lung cancer xenograft in Crl:CD1-Foxn1nu 1 mice; format: in vivo; settings: NCI-H460-Luc2, Crl:CD1-Foxn1nu 1 mice, 20 mg/kg i.v. six times every second day, 30th day
Protocol: (§4) Antitumor activity of protein preparations was tested in a mouse model of human colon cancer HCT116, human colon cancer Colo205, human colon cancer model SW620, human liver cancer model HepG2, and human lung cancer models NCI-H460 and NCI-H460-Luc2.
(§5) The HCT116 (in mice Crl:CD1-Foxn1^nu 1), Colo205, NCI-H460, NCI-H460-Luc2 cells were maintained in RPMI 1640 medium (Hyclone, Logan, Utah, USA) mixed in the ratio of 1:1 with Opti-MEM (Invitrogen, Cat.22600-134) supplemented with 10% fetal calf serum and 2 mM glutamine. On the day of mice grafting, the cells were detached from the support by washing the cells with trypsin (Invitrogen), then the cells were centrifuged at 1300 rpm, 4° C., 8 min., suspended in HBSS buffer (Hanks medium), counted and diluted to the concentration of 25×10^6 cells/ml.
(§6) Examination of antitumor activity of proteins of the invention was conducted on 7-9 week-old CD-nude (Crl:CD1-Foxn1^nu 1) or 4-6 week-old Crl:SHO-Prkdc^scidHr^hr mice obtained from Charles River Germany. Mice were kept under specific pathogen-free conditions with free access to food and demineralised water (ad libitum). All experiments on animals were carried in accordance with the guidelines: “Interdisciplinary Principles and Guidelines for the Use of Animals in Research. […]

NCI-H460 = settings: Table 4, mean/SD part
Protocol: (§7) Data analysis consists in determining IC50 concentration of the protein (in ng/ml), at which the 50% reduction in the number of cells occurs in the population treated compared to control cells. Results were analyzed using GraphPad Prism 5.0 software. […] Cell culture medium was diluted to a defined density (10^4-10^5 cells per 100 μl). Then 100 μl of appropriately diluted cell suspension was applied to a 96-well plate in triplicates. Thus prepared cells were incubated for 24 h at 37° C. in 5% or 10% CO2, depending on the medium used, and then to the cells (in 100 μl of medium) further 100 μl of the medium containing various concentrations of tested proteins were added. […] After incubation of the cells with tested proteins over the period of next 72 hours, which is equivalent to 3-4 times of cell division, the medium with the test protein was added with 20 ml of MTT working solution [5 mg/ml], and incubation was continued for 3 h at 37° C. in 5% CO2. Then the medium with MTT solution was removed, and formazan crystals were dissolved by adding 100 μl of DMSO. After stirring, the absorbance was measured at 570 nm (reference filter 690 nm).

[3] = system: human colon cancer HCT116; assay: HCT116 colon cancer xenograft in Crl:CD1-Foxn1^nu 1 mice; format: in vivo; settings: HCT116, Crl:CD1-Foxn1^nu 1 mice, 10 mg/kg i.v., 10 daily applications with a two-day break after the first 5, 27th day
Protocol: as §4, §5, §6

[4] = continuous incubation over 72 h, test MTT

Protocol for HCT-116: as §7

Molecule | A549 mean (IC50) (A549; Table 4, mean/SD part) [µg/mL] | HT 29 mean (IC50) (HT-29) | MES-SA/Dx5 mean (IC50) (MES-SA/Dx5; listed as Ex. 17^a) | SK-MES-1 mean (IC50) (SK-MES-1) [µg/mL] | MES-SA IC50 (MES-SA) [µg/mL] | A549 IC50 (A549; [4]) [µg/mL] | MES-SA/Dx5 IC50 (MES-SA/Dx5; [4]) [µg/mL] | MCF10A IC50 (MCF10A) [µg/mL] | SK-MES-1 IC50 (SK-MES-1; [4]) [µg/mL] | IC50 [1] [µg/mL] | HCT116 IC50 (HCT-116; [4]) [µg/mL] | UM-UC-3 mean (IC50) (UM-UC-3) [µg/mL] | OVCAR-3 mean (IC50) (NIH: OVCAR-3) [µg/mL] | MES-SA/Dx5 mean (IC50) (MES-SA/Dx5) [µg/mL] | tumor growth inhibition (TGI) relative to the control [2] [%] | NCI-H460 mean (IC50) (NCI-H460) [µg/mL] | tumor growth inhibition (TGI) relative to the control [3] [%] | HCT116 mean (IC50) (HCT-116; Table 4, mean/SD part)
B1 | 2.887 | 6.808 µg/mL and 7.818 µg/mL | 0.07596 µg/mL and 0.04426 µg/mL | 0.08119 |  |  |  |  |  |  |  |  |  |  |  |  |  | 
B2 |  |  |  |  | 0.2312 | 1.767 | 0.01373 | >2 | 0.02848 | 0.049 | 0.1235 |  |  |  |  |  |  | 
B3 |  |  |  | 0.01888 |  |  |  |  |  |  |  | 0.03506 | 0.0261 | 0.01896 | 81.3 | 4.246 | 71.2 | 0.06 µg/mL and 0.06087 µg/mL
